Measurements taken from patent publication US20260209316A1 (US Dept. of Health and Human Services, published 2026).

Tests used:
[1] = target: T1, SUDV GP on pseudotyped lentiviral vector (Sudan virus (SUDV), UniProt Q7T9D9 33-676); assay: cell-based or functional assay
T1 sequence: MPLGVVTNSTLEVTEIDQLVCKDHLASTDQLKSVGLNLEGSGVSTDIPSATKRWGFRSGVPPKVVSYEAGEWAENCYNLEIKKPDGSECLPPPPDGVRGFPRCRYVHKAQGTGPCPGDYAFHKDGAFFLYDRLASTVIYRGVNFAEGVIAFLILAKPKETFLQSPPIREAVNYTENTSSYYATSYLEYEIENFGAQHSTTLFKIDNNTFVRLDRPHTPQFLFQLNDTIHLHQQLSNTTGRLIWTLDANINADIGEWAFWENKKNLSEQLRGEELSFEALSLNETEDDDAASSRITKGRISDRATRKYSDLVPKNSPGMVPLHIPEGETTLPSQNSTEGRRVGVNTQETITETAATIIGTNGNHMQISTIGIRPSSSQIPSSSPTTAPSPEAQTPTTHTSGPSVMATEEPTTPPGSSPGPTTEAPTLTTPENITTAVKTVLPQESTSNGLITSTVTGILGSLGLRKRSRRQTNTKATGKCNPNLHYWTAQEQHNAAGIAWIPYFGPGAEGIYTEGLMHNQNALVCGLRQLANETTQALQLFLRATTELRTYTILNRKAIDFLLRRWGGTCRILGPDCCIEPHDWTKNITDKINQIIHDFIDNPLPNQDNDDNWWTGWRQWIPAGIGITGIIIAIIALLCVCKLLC

[2] = target: T2, EBOV GP on pseudotyped lentiviral vector (Ebola (Zaire) virus (EBOV), UniProt Q05320 33-676); assay: cell-based or functional assay
T2 sequence: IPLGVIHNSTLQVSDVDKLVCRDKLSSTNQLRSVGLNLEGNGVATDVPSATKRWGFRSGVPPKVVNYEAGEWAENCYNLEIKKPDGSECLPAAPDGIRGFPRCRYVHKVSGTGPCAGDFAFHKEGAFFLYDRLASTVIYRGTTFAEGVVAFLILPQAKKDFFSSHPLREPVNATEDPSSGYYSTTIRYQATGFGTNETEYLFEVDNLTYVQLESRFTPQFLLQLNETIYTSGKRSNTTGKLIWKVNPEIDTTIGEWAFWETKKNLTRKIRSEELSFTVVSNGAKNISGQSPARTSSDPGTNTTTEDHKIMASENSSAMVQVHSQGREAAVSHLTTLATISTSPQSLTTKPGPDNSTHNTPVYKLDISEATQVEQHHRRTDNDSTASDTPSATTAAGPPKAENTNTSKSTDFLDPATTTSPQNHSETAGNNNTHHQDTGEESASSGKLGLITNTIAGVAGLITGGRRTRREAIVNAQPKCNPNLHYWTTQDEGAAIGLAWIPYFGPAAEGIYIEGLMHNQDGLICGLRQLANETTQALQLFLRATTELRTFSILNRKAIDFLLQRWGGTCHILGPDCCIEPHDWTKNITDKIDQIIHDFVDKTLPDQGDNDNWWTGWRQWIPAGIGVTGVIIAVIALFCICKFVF

[3] = target: T3, full-length Zaire GP (GPFL) (Ebola (Zaire) virus (EBOV), UniProt Q05320 33-632); assay: ELISA on coated GP
T3 construct: also called Zaire GPFL; GP(Z)FL
T3 sequence: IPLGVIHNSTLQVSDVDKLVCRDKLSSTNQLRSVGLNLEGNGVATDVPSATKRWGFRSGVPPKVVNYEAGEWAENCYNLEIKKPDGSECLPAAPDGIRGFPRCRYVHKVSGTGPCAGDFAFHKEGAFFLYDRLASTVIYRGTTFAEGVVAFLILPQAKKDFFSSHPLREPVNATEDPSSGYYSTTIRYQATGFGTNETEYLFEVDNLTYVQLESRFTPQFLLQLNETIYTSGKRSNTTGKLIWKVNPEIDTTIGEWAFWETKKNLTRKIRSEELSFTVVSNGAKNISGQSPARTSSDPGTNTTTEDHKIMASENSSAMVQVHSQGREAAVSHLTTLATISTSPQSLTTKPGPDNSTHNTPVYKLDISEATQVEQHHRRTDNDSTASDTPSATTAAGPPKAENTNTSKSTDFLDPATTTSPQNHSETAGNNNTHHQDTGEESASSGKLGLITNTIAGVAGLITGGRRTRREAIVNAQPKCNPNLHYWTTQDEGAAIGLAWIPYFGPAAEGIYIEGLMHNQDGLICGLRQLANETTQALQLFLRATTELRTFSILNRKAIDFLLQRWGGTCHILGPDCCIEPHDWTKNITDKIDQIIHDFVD

[4] = target: T4, full-length Sudan GP (GPFL) (Sudan virus (SUDV), UniProt Q7T9D9 33-650); assay: ELISA on coated GP
T4 construct: also called Sudan GPFL; GP(S)FL
T4 sequence: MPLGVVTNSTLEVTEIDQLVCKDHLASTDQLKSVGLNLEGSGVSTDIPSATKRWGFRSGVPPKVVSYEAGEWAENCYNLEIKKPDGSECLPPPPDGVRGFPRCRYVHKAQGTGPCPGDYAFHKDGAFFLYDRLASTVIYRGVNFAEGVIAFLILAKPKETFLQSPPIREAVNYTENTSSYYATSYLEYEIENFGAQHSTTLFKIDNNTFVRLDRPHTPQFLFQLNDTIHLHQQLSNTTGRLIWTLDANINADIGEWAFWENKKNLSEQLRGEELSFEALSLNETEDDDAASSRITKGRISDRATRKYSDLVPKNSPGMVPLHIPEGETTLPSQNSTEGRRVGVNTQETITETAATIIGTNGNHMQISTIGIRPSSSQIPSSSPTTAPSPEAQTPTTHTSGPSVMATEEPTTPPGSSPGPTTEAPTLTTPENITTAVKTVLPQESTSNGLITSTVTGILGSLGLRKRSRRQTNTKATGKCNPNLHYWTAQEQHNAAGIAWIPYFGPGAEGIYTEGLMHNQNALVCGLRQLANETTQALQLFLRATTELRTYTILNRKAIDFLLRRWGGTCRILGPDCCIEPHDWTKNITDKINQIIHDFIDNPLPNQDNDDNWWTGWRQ

[5] = target: T3, full-length Zaire GP (GPFL); assay: BLI, Fab, pH 7.4
[6] = target: T4, full-length Sudan GP (GPFL); assay: BLI, Fab, pH 7.4
[7] = target: T4, full-length Sudan GP (GPFL); assay: BLI, Fab, pH 5.3
[8] = target: T4, full-length Sudan GP (GPFL); assay: BLI, Fab, pH 5.3; remark: listed apart in the source
[9] = target: T4, full-length Sudan GP (GPFL); assay: BLI, Fab, pH 7.4; remark: listed apart in the source

B1: antibody 310L (antibody, V domains shown)
VH: EMQLVESGGGLVQPGGSLRLSCAASGFTFDAYAMHWVRQRPGKGLEWISGIIWSGRTTYYADSVKGRFTFSRDNSKNSLYLEMNSLKPEDTALYYCAKDSWNYGVYNSLDVWGRGILVTVSS
VL: QSVLTQPPSVSGAPGQRVTISCTGSSSNVGPHYVSWYQHLPGTTPKLLIFQDNKRPSGVSDRFSGSKSASSASLTITGLQTEDEADYYCLSYDSSLNVYIFGSGTRLTVL
B1 was tested, and the “IC50, microneutralization of GP-pseudotyped lentiviral vector on HEK293 cells” value (shortened to “IC50, microneutralization”) [1] was greater than 10 µg/mL, the “IC50, microneutralization” value [2] was greater than 10 µg/mL and the EC50 [3] was 0.01 µg/mL. For the same binder, the EC50 [4] was 0.04 µg/mL.

B2: antibody 232L (antibody, V domains shown)
VH: KSQLVESGGGLVQPGGSLRLSCAASGFTFDAYAMHWVRQAPGEGLEWVTAISWSGSSTYYADSVKGRFTFSRDNAKNSLYLEMNSLRADDTAFYYCVKGGVYNWFDVWGPGVLVTVSS
VL: QSVLTQPPSVSGAPGQRVTISCTGSRSNIGGYYVSWYQQFPGTTPKLLIYQDNKRPSGVSDRFSGSKSGTSASLTITGLQTEDEADYYCLSYDSSLNGWVFGGGTRLTVL
For B2, the “IC50, microneutralization” value [1] was greater than 10 µg/mL, the “IC50, microneutralization” value [2] was greater than 10 µg/mL and the EC50 [3] was 0.08 µg/mL. The EC50 [4] was 0.09 µg/mL.

B3: Fab generated from 316L (Fab, V domains shown)
VH: EERLVESGGGLVQPGGSLRLSCAASGFTFGDYAMHWVRQVPGKSLEWLSGISWSGYTTYSADSVKGRFTISRDNAKNSLYLQMNRLRPEDTGLYYCVTLIGAIGIKDSLDVWGRGVLVTVSS
VL: QSVLTQPPSVSGAPGQRVTVSCSGSSSNIGAGNYVQWYQQLPGTAPKVLIYQTEKRPSGTSDRFSGSKSDTSASLTINGLQSEDEADYYCQVYDSNLNGWVFGGGTRLTVL
notes: also called 316L Fab
B3 gave a Kd [5] of 38.1 nM, a koff [5] of 0.00263 s⁻¹ and a kon [5] of 69000 M⁻¹ s⁻¹. It also gave a Kd [6] of 1.16 nM, a koff [6] of 0.000157 s⁻¹ and a kon [6] of 135000 M⁻¹ s⁻¹. It also gave a Kd [7] of 1.26 nM, a koff [7] of 0.000139 s⁻¹ and a kon [7] of 110000 M⁻¹ s⁻¹.

B4: Fab generated from 380L (Fab, V domains shown)
VH: EVQLVESGGGLVQPGGSLTLSCAASGFTFGDYVMHWVRQVPGRGLEWLSAVSWSGYTTYSADSVKGRFTISRDNAKNSLYLQMSRLGTADTGLYYCVTLIGAIGIRDSFDAWGRGVLVTVSS
VL: QSVLTQPPSMSGAPGQRVTVSCTGSSSNIGAGNYVQWYQQLPGTAPKVLIYQTDKRPSGISDRFSGSKSGTSASLTISGLQSEDEADYYCQVYDSSLNGWVFGGGTRLTVL
notes: also called 380L Fab
B4 showed a Kd [5] of 19.8 nM, a koff [5] of 0.00148 s⁻¹ and a kon [5] of 63000 M⁻¹ s⁻¹. The Kd [6] was 2.85 nM, the koff [6] was 0.00029 s⁻¹ and the kon [6] was 101000 M⁻¹ s⁻¹. For the same binder, the Kd [7] was 3.87 nM, the koff [7] was 0.000326 s⁻¹ and the kon [7] was 84200 M⁻¹ s⁻¹.

B5: antibody 231L (antibody, V domains shown)
VH: EVQLVESGGGLVQPGGSLRLSCAASAFTFDDYAMHWVRQAPGKGLEWVSGITWSGLSTYYADSVKGRFTISRDNAKNSLYLQMNSLRVEDTALYYCAKSGNNSPFSGLDSWGQGAVVTVSS
VL: QSVLTQPPSVSGAPGQRVTVSCTGSSSNIGAGSYVQWYQQLPGTAPKLLIYENNKRPSGVSDRFSGSKSGTSASLTITGLQSEDEADYYCQSYDSSLNAYIFGAGTRLTVL
B5 was tested, and the “IC50, microneutralization” value [1] was greater than 10 µg/mL, the “IC50, microneutralization” value [2] was greater than 10 µg/mL and the EC50 [3] was 0.002 µg/mL. The EC50 [4] was 0.4 µg/mL.

B6: antibody 191L (antibody, V domains shown)
VH: EVQLVESGGGLVQPGGSLRLSCAASGFTFSSYGIHWVRQAPGKGLEWVAIISYDGNKKFHADSVKDRFTISRDNSKNMLYLQMNNLKLEDTAVYYCARAYDSGYFAGSVFYYWGQGVLVTVSS
VL: EVVFTQPHSVSGSPGQTVTISCTRSSGSIDSEYVQWYQQRPGNAPTTVIYKDNQRPSGVPDRFSGSIDSSSNSASLAISGLKSEDEADYYCQSADGNYHPVFGEGTRLTVL
B6 was tested, and the “IC50, microneutralization” value [1] was greater than 10 µg/mL, the “IC50, microneutralization” value [2] was greater than 10 µg/mL and the EC50 [3] was 0.01 µg/mL. For the same binder, the EC50 [4] was 0.02 µg/mL.

B7: Fab generated from 291S (Fab, V domains shown)
VH: QVQLQESGPGLVKPSQTLSLTCTVSGGSFSSGFYWSWIRQRPGKGLEWVGYTYYSGSTYYNPSLQSRVTISVDTSKNQFSLNLSSVTAADTAVYHCARADYGGLFDYWGQGILVTVSS
VL: QSVLTQPSSLSASPGASASLTCTLRSGINVGTYRIFWYQQKPGSPPQFLLRYNSDSDKQQGSGVPSRFSGSKDASANAGILLISGLQSEDEADYYCMIWHTSAWVFGGGTKLTVL
B7 was tested, and the Kd [8] was 4.27 nM, the koff [8] was 0.00011 s⁻¹ and the kon [8] was 25700 M⁻¹ s⁻¹. For the same binder, the Kd [9] was 2.97 nM, the koff [9] was 0.000131 s⁻¹ and the kon [9] was 44200 M⁻¹ s⁻¹.

B8: antibody 206L (antibody, V domains shown)
VH: EVQLVESGGGVVQPGGSLRLSCAASGFTFDDYAMHWVRQAPGKGLEWVSGISWSGGNTYYADSVKGRFTVSRENAKNSLYLQMNRLRAEDTAFYNCARTSQGGAVVFSAPNYWGQGVLVTVSS
VL: QSVLTQAPSVSGAPGQRVTISCTGSSSNIGGYYVQWYQQLPGRAPKLLIYENNKRPSGVSDRFSGSRSASSASLTITGLQSEDEADYYCQSYDSRLNGYIFGGGTRLTVL
With B8 the “IC50, microneutralization” value [1] was greater than 10 µg/mL, the “IC50, microneutralization” value [2] was greater than 10 µg/mL and the EC50 [3] was 0.001 µg/mL. For the same binder, the EC50 [4] was 2.58 µg/mL.
